B1: C-terminal V5-tagged Arf1 (Arf1-V5) (natural protein)
chain: not shown
notes: Arf1 small GTPase (ADP-ribosylation factor 1); The assay was done in the presence of GDP; source: HEK293T cells expressing Arf1-V5, in lysate (pre-cleared with agarose beads); not shown: V5, C-terminal, kept
B2: Arf1-del17-His, recombinant Arf1 deleted of the first 17 amino acids (domain or fragment)
chain: not shown
notes: Arf1 small GTPase deleted of the first 17 amino acids; The assay was done in the presence of GDP; also called Arf1-His; recombinant Arf1-del17 protein; source: bacterially produced and purified

Key:
[1] = biological target: T1, GFP-GBF1 (wild type) immunoprecipitated from cells expressing active SrcEG (tyrosine-phosphorylated GBF1) (human, UniProt Q92538-1 1-1859, phosphotyrosine at Y876 and Y898 and at eight other tyrosines (10 in all by mass spectrometry; positions 317, 377, 515 and five tyrosines in HDS2/3 are named)); assay: cell-based or functional assay
T1 sequence (Q92538 other isoform, or with tags, fused parts or gaps): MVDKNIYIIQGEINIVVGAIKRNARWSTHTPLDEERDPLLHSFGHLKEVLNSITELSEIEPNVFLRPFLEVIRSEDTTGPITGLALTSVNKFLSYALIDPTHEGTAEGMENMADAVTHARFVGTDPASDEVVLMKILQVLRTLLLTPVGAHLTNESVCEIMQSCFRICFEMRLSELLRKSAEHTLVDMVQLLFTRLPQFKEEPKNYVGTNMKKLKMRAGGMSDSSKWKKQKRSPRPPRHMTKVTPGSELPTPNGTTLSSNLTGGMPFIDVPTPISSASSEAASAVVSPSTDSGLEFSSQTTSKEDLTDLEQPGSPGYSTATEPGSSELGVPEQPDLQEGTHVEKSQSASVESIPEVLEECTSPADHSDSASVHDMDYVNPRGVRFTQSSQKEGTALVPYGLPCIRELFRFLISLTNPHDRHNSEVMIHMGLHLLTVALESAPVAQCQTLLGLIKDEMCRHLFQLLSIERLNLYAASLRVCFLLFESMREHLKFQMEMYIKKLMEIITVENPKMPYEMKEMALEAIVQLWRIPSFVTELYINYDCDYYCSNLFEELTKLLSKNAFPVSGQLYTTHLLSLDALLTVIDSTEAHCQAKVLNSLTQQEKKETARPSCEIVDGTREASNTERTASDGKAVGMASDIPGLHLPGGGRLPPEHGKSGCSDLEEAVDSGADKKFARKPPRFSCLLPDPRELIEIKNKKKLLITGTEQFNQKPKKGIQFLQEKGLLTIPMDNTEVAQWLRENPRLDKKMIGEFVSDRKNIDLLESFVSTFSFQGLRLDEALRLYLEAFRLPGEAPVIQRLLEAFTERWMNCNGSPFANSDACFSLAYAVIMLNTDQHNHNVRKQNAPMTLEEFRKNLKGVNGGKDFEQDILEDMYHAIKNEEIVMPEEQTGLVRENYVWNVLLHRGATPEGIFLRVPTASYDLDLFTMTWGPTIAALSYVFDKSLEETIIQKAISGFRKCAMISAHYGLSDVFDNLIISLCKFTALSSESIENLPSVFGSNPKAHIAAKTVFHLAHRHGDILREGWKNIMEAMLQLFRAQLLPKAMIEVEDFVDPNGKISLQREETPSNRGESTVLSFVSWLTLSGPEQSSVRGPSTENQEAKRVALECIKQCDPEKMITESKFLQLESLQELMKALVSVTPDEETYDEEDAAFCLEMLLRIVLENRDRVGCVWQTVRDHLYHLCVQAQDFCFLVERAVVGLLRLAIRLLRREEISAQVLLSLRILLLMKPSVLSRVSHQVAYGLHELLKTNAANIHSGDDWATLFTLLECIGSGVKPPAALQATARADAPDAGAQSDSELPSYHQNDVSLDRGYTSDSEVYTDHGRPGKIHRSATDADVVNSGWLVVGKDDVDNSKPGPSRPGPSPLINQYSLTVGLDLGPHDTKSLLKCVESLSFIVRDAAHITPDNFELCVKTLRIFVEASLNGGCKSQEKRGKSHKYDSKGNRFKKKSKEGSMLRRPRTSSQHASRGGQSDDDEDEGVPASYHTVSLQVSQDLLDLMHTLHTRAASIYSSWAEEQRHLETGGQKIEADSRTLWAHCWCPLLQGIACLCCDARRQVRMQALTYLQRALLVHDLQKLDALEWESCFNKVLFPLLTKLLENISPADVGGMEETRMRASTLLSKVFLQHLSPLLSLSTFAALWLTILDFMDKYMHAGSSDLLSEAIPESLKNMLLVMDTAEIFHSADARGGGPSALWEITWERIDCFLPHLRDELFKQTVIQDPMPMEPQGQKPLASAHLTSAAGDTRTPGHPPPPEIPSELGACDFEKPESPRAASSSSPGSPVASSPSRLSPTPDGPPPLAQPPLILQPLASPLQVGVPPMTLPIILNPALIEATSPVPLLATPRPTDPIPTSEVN

[2] = biological target: T1, GFP-GBF1 (wild type) immunoprecipitated …; assay: pull-down; in vitro Arf1 binding assay: NGFP-GBF1 immunoprecipitated on GFP-trap agarose beads from cells expressing SrcKM or SrcEG, incubated with 4 mg lysate of HEK293T cells expressing Arf1-V5 (pre-cleared) for 1 hr at 4°C in the presence of GDP; washed three times with HKMT buffer (20 mM HEPES pH 7.4, 0.1 M KCl, 1 mM MgCl2, 0.5% Triton X-100); bound Arf1 by immunoblot; settings: one partner purified
[3] = biological target: T2, GFP-GBF1-Y898F immunoprecipitated from cells expressing active SrcEG (human, UniProt Q92538-1 1-1859, Y898F); assay: pull-down; in vitro Arf1 binding assay: NGFP-GBF1 (wild type or mutant) immunoprecipitated on GFP-trap agarose beads from cells expressing SrcKM or SrcEG, incubated with 10 µg recombinant Arf1-del17 protein for 1 hr at 4°C in the presence of GDP; washed three times with HKMT buffer (20 mM HEPES pH 7.4, 0.1 M KCl, 1 mM MgCl2, 0.5% Triton X-100); bound Arf1 by western blot; settings: both partners purified
T2 construct: GBF1, human, with Y898F; source: expressed in cells coexpressing active SrcEG, immunoprecipitated on GFP-trap agarose beads; not shown: GFP, N-terminal, kept
T2 sequence (Q92538 other isoform, or with tags, fused parts or gaps Y898F | Y898F | Y898F Y898F): as the sequence (Q92538 other isoform, or with tags, fused parts or gaps) above, with Y898F counted along it

[4] = biological target: T3, GFP-GBF1-Y876F immunoprecipitated from cells expressing active SrcEG (human, UniProt Q92538-1 1-1859, Y876F); assay: as above; settings: both partners purified
T3 construct: GBF1, human, with Y876F; source: expressed in cells coexpressing active SrcEG, immunoprecipitated on GFP-trap agarose beads; not shown: GFP, N-terminal, kept
T3 sequence (Q92538 other isoform, or with tags, fused parts or gaps Y876F | Y876F | Y876F Y876F): as the sequence (Q92538 other isoform, or with tags, fused parts or gaps) above, with Y876F counted along it

[5] = biological target: T4, GFP-GBF1-Y876.898F double mutant immunoprecipitated from cells expressing active SrcEG (human, UniProt Q92538-1 1-1859, Y876F | Y898F); assay: as above; settings: both partners purified
T4 construct: GBF1, human, with Y876F and Y898F; source: expressed in cells coexpressing active SrcEG, immunoprecipitated on GFP-trap agarose beads; not shown: GFP, N-terminal, kept
T4 sequence (Q92538 other isoform, or with tags, fused parts or gaps Y876F | Y898F | Y876F | Y898F | mutant): as the sequence (Q92538 other isoform, or with tags, fused parts or gaps) above, with Y876F, Y898F counted along it

| Binder | Arf1-GTP levels (GGA3 PBD bead pull-down of endogenous Arf1-GTP) in HEK-IS cells expressing GFP-GBF1, after imidazole activation of Src8A7F, 0 to 45 min, peak at 10 min [1] | fold increase in bound Arf1-V5 against GFP-GBF1 from SrcKM cells [2] | percent reduction of bound Arf1 against wild-type GFP-GBF1 from SrcEG cells [3] | percent reduction of bound Arf1 against wild-type GFP-GBF1 from SrcEG cells [4] | percent reduction of bound Arf1 against wild-type GFP-GBF1 from SrcEG cells [5] |
| --- | --- | --- | --- | --- | --- |
| B1 | ~3 fold | 2 fold | – | – | – |
| B2 | – | – | 60% | 40% | > 70% |

Reference: publication PMC8727025, “Src activates retrograde membrane traffic through phosphorylation of GBF1” (eLife, 2021)
